B1: Epidermal growth factor receptor (Drosophila melanogaster (Fruit fly)), P04412 (parent)
chain: MLLRRRNGPCPFPLLLLLLAHCICIWPASAARDRYARQNNRQRHQDIDRDRDRDRFLYRSSSAQNRQRGGANFALGLGANGVTIPTSLEDKNKNEFVKGKICIGTKSRLSVPSNKEHHYRNLRDRYTNCTYVDGNLKLTWLPNENLDLSFLDNIREVTGYILISHVDVKKVVFPKLQIIRGRTLFSLSVEEEKYALFVTYSKMYTLEIPDLRDVLNGQVGFHNNYNLCHMRTIQWSEIVSNGTDAYYNYDFTAPERECPKCHESCTHGCWGEGPKNCQKFSKLTCSPQCAGGRCYGPKPRECCHLFCAGGCTGPTQKDCIACKNFFDEAVSKEECPPMRKYNPTTYVLETNPEGKYAYGATCVKECPGHLLRDNGACVRSCPQDKMDKGGECVPCNGPCPKTCPGVTVLHAGNIDSFRNCTVIDGNIRILDQTFSGFQDVYANYTMGPRYIPLDPERREVFSTVKEITGYLNIEGTHPQFRNLSYFRNLETIHGRQLMESMFAALAIVKSSLYSLEMRNLKQISSGSVVIQHNRDLCYVSNIRWPAIQKEPEQKVWVNENLRADLCEKNGTICSDQCNEDGCWGAGTDQCLTCKNFNFNGTCIADCGYISNAYKFDNRTCKICHPECRTCNGAGADHCQECVHVRDGQHCVSECPKNKYNDRGVCRECHATCDGCTGPKDTIGIGACTTCNLAIINNDATVKRCLLKDDKCPDGYFWEYVHPQEQGSLKPLAGRAVCRKCHPLCELCTNYGYHEQVCSKCTHYKRREQCETECPADHYTDEEQRECFQRHPECNGCTGPGADDCKSCRNFKLFDANETGPYVNSTMFNCTSKCPLEMRHVNYQYTAIGPYCAASPPRSSKITANLDVNMIFIITGAVLVPTICILCVVTYICRQKQKAKKETVKMTMALSGCEDSEPLRPSNIGANLCKLRIVKDAELRKGGVLGMGAFGRVYKGVWVPEGENVKIPVAIKELLKSTGAESSEEFLREAYIMASEEHVNLLKLLAVCMSSQMMLITQLMPLGCLLDYVRNNRDKIGSKALLNWSTQIAKGMSYLEEKRLVHRDLAARNVLVQTPSLVKITDFGLAKLLSSDSNEYKAAGGKMPIKWLALECIRNRVFTSKSDVWAFGVTIWELLTFGQRPHENIPAKDIPDLIEVGLKLEQPEICSLDIYCTLLSCWHLDAAMRPTFKQLTTVFAEFARDPGRYLAIPGDKFTRLPAYTSQDEKDLIRKLAPTTDGSEAIAKPDDYLQPKAAPGPSHRTDCTDEMPKLNRYCKDPSNKNSSTGDDERDSSAREVGVGNLRLDLPVDEDDYLMPTCQPGPNNNNNMNNPNQNNMAAVGVAAGYMDLIGVPVSVDNPEYLLNAQTLGVGESPIPTQTIGIPVMGGPGTMEVKVPMPGSEPTSSDHEYYNDTQRELQPLHRNRNTETRV
partner: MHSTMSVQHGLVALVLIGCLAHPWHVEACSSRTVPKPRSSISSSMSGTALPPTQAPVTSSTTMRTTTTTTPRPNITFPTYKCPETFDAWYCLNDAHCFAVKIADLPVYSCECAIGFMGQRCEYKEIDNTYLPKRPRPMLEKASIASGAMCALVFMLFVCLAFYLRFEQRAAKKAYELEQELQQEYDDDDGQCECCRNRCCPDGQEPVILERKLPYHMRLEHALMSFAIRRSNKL

Variants of: B1
Settings: with spitz_drome spi

effect of a mutation on the interaction | Variant
decreasing interaction | Y341E;N342A;T344D;Y346E;V347A;L348D
